Test results from the Immune Epitope Database (IEDB).
pKd: −log10 of the molar value. Blank lines part the entries; values can stand above or below the sequence they belong to.

Assays:
[1] = biological target: HLA-B*15:02; assay: IEDB peptide-MHC binding, purified MHC/competitive/fluorescence; filed as Kd, often an IC50 or EC50 that approximates it; ≥ and ≤ were set here for values at or beyond the usual limits of such assays
[2] = biological target: HLA-B*15:01; assay: IEDB peptide-MHC binding, purified MHC/direct/fluorescence; filed as Kd, often an IC50 or EC50 that approximates it; ≥ and ≤ were set here for values at or beyond the usual limits of such assays
[3] = biological target: HLA-B*27:05; assay: as above; details: source organism: Pseudomonas aeruginosa
[4] = biological target: HLA-A*26:01; assay: as above
[5] = biological target: HLA-B*40:01; assay: as above; details: source organism: Pseudomonas aeruginosa
[6] = biological target: HLA-B*08:01; assay: as above; details: source organism: Pseudomonas aeruginosa
[7] = biological target: HLA-A*02:01; assay: as above
[8] = biological target: HLA-A*11:01; assay: as above; details: source organism: Pseudomonas aeruginosa
[9] = biological target: HLA-B*07:02; assay: as above
[10] = biological target: HLA-A*69:01; assay: as above
[11] = biological target: HLA-A*31:01; assay: as above; details: source organism: Pseudomonas aeruginosa
[12] = biological target: HLA-A*03:01; assay: as above
[13] = biological target: HLA-A*01:01; assay: as above
[14] = biological target: HLA-B*58:01; assay: as above; details: source organism: Pseudomonas aeruginosa
[15] = biological target: HLA-B*57:01; assay: as above; details: source organism: Rickettsia sibirica 246
[16] = biological target: HLA-B*27:03; assay: as above; details: source organism: Rickettsia sibirica 246
[17] = biological target: HLA-A*02:03; assay: as above; details: source organism: Rickettsia sibirica 246
[18] = biological target: HLA-A*29:02; assay: as above; details: source organism: Rickettsia sibirica 246
[19] = biological target: HLA-A*02:11; assay: as above; details: source organism: Rickettsia sibirica 246
[20] = biological target: HLA-B*15:17; assay: as above; details: source organism: Rickettsia sibirica 246
[21] = biological target: HLA-A*68:02; assay: as above; details: source organism: Rickettsia sibirica 246
[22] = biological target: HLA-A*24:03; assay: as above; details: source organism: Rickettsia sibirica 246
[23] = biological target: HLA-A*02:12; assay: as above; details: source organism: Rickettsia sibirica 246
[24] = biological target: HLA-A*02:16; assay: as above; details: source organism: Rickettsia sibirica 246
[25] = biological target: HLA-B*35:01; assay: as above; details: source organism: Rickettsia sibirica 246
[26] = biological target: HLA-A*02:19; assay: as above; details: source organism: Rickettsia sibirica 246
[27] = biological target: HLA-B*18:01; assay: as above; details: source organism: Rickettsia sibirica 246
[28] = biological target: HLA-B*39:01; assay: as above; details: source organism: Rickettsia sibirica 246
[29] = biological target: HLA-B*46:01; assay: as above; details: source organism: Rickettsia sibirica 246
[30] = biological target: HLA-B*51:01; assay: as above; details: source organism: Rickettsia sibirica 246
[31] = biological target: HLA-C*08:02; assay: as above
[32] = biological target: HLA-B*48:01; assay: as above; details: source organism: Burkholderia mallei
[33] = biological target: HLA-C*14:02; assay: as above; details: source organism: Yersinia pestis CO92
[34] = biological target: HLA-A*80:01; assay: as above; details: source organism: Francisella tularensis subsp. holarctica LVS
[35] = source organism: Pseudomonas aeruginosa
[36] = source organism: Rickettsia sibirica 246

- pKd ([1]; source organism: Pseudomonas aeruginosa PACS2): 6.09
- pKd [2, 35]: 6.32
- pKd [3]: ≤ 4.70
- pKd [4, 35]: ≤ 4.70
- pKd [5]: ≤ 4.70
- pKd [6]: ≤ 4.70
- pKd [7, 35]: ≤ 4.70
- pKd [8]: ≤ 4.70
- pKd [9, 35]: ≤ 4.70
- pKd [10, 35]: ≤ 4.70
- pKd [11]: ≤ 4.70
- pKd [12, 35]: ≤ 4.70
- pKd [13, 35]: 5.70
- pKd [14]: ≤ 4.70
Sequence: ALEPGFKDY

Sequence: EFVSANLAM
- pKd [2, 36]: ≤ 4.70
- pKd [15]: ≤ 4.70
- pKd [4, 36]: ≤ 4.70
- pKd [16]: ≤ 4.70
- pKd [17]: ≤ 4.70
- pKd [18]: ≤ 4.70
- pKd [19]: ≤ 4.70
- pKd [7, 36]: ≤ 4.70
- pKd [20]: ≤ 4.70
- pKd [21]: ≤ 4.70
- pKd [9, 36]: ≤ 4.70
- pKd [22]: ≤ 4.70
- pKd [23]: ≤ 4.70
- pKd [24]: ≤ 4.70
- pKd [25]: 7.28
- pKd [10, 36]: ≤ 4.70
- pKd [26]: ≤ 4.70
- pKd [12, 36]: ≤ 4.70
- pKd [27]: ≤ 4.70
- pKd [28]: ≤ 4.70
- pKd [29]: ≤ 4.70
- pKd [30]: ≤ 4.70

Sequence: ELNASFIVF
- pKd ([1]; source organism: Rickettsia massiliae MTU5): 6.74

Sequence: FQPQSGNAM
- pKd ([31]; source organism: Burkholderia mallei NCTC 10229): 6.24
- pKd [32]: 5.60

Sequence: KIMQVDRPM
- pKd ([1]; source organism: Yersinia pestis CO92): 5.40
- pKd [33]: 6.99

Sequence: LSDNLSLVY
- pKd [34]: 6.77
- pKd ([31]; source organism: Francisella tularensis subsp. tularensis FSC198): 6.26
- pKd ([13]; source organism: Francisella tularensis subsp. holarctica LVS): ≥ 9.00
